Results: US5565425A, “Viral infection and proliferation inhibitors” (Snow Brand Milk Products Co., Ltd, priority 1993, dated 1996)

Tests used:
HIV (HTLV-IIIB) = assay: Inhibitory activity against HIV infection and proliferation in MT-4 cells (indirect fluorescence antibody method); format: cell-based, human immunodeficiency virus (HIV); conditions: three days, positive control 26.0%
Experimental: (Method) Cultured supernatant of MOLT-4/HTLV-IIIB cells, a HTLV-IIIB persistent infected strain of HIV, was used as a viral solution. The supernatant was kept at -80° C. Human T cell line MT-4 was used for the test. MT-4 was subcultured in RPMI 1640 medium containing 10% fetal calf serum (FCS). Sample, LF derived peptide, was dissolved in RPMI 1640 medium and one ml of the diluted solution at various concentrations was added to the cells. The inoculated MT-4 test sample was incubated for 60 minutes and infected with HIV at a concentration of moi […]=0.01 and one ml of the cell solution adjusted at a cell density of 3×10^5 cells/ml was added. The cells were cultured for three days : and HIV infected cells were determined with an indirect fluorescence antibody method.
HIV infected cells were determined by the indirect fluorescence antibody method using HIV infected patient serum as a primary antibody. […] HIV infected MT-4 cells cultured without addition of the sample was used as a positive control and cells without addition of viral solution was cultured to make a negative control group.

[1] = tested on: influenza virus A/PR/8/34; conditions: 100 μl of one mg/ml solution in allantoic cavity three hours before virus; average of five eggs
[2] = tested on: Human CMV (Tanaka strain); assay: Inhibitory activity against human CMV infection and proliferation in HELF cells (fluorescence staining); format: cell-based, Human cytomegalo virus; conditions: 24 hrs., concentration not given
Experimental: (Method) LF derived peptide was dissolved in 2% serum added MEM medium to give five mg/ml solution, filtered and sterilized to make a stock solution. The stock solution was diluted with 2% serum added MEM medium on use. Samples containing human embryo lung fibroblast cells (HELF cells) were suspended in 2% serum added MEM medium and incubated for 10 minutes. The cells were collected by centrifugation, washed twice with 2% serum added MEM medium and suspended in 2% serum added MEM medium. Human cytomegalo virus [Human CMV (Tanaka strain)] was added, incubated for 24 hrs., fluorescence stained with human CMV positive serum and the adsorption rate of human CMV to the cells was determined.
The results are judged from the numbers of fluorescent stained cells per one cover slip.

B1: Human LF: human lactoferrin, an iron-binding protein secreted in milk (protein, UniProt P02788 20-710, looked up)
Lactotransferrin: GRRRSVQWCAVSQPEATKCFQWQRNMRKVRGPPVSCIKRDSPIQCIQAIAENRADAVTLDGGFIYEAGLAPYKLRPVAAEVYGTERQPRTHYYAVAVVKKGGSFQLNELQGLKSCHTGLRRTAGWNVPIGTLRPFLNWTGPPEPIEAAVARFFSASCVPGADKGQFPNLCRLCAGTGENKCAFSSQEPYFSYSGAFKCLRDGAGDVAFIRESTVFEDLSDEAERDEYELLCPDNTRKPVDKFKDCHLARVPSHAVVARSVNGKEDAIWNLLRQAQEKFGKDKSPKFQLFGSPSGQKDLLFKDSAIGFSRVPPRIDSGLYLGSGYFTAIQNLRKSEEEVAARRARVVWCAVGEQELRKCNQWSGLSEGSVTCSSASTTEDCIALVLKGEADAMSLDGGYVYTAGKCGLVPVLAENYKSQQSSDPDPNCVDRPVEGYLAVAVVRRSDTSLTWNSVKGKKSCHTAVDRTAGWNIPMGLLFNQTGSCKFDEYFSQSCAPGSDPRSNLCALCIGDEQGENKCVPNSNERYYGYTGAFRCLAENAGDVAFVKDVTVLQNTDGNNNEAWAKDLKLADFALLCLDGKRKPVTEARSCHLAMAPNHAVVSRMDKVERLKQVLLHQQAKFGRNGSDCPDKFCLFQSETKNLLFNDNTECLARLHGKTTYEKYLGPQYVAGITNLKKCSTSPLLEACEFLRK
HIV (HTLV-IIIB); sample 63 μg/ml
  ratio of stained (HIV infected) cells: 17%
HIV (HTLV-IIIB); sample 125 μg/ml
  ratio of stained (HIV infected) cells: 8.6%
HIV (HTLV-IIIB); sample 250 μg/ml
  ratio of stained (HIV infected) cells: 7.3%
HIV (HTLV-IIIB); sample 500 μg/ml
  ratio of stained (HIV infected) cells: 5.8%
HIV (HTLV-IIIB); sample 1,000 μg/ml
  ratio of stained (HIV infected) cells: 3.1%
[1]
  Inhibitory rate of infection and proliferation of influenza virus: 87.5%
[2]
  Inhibitory rate of human CMV infection: 94.8%
